These results are taken from patent publication US20020081603.

The data set deals with acetylated histone H3. As to conditions: ChIP with qPCR. A general note: In qPCR the cycle at which signal appears reflects the starting amount.

Consider “p16 5'-UTR CpG island region, methylated (untreated HCT15)”, for which the binding signal (reference (10-fold lower than treated)) (5mC in CpG island, untreated HCT15 cells) was 1.

Where the note is “HCT15 cells treated with 2 uM 5-azacytidine”, “p16 5'-UTR CpG island region, unmethylated (5-azacytidine-treated HCT15)” yielded a binding signal (fold enrichment vs untreated) of 10.
